{
  "source": "paper PMC4436075",
  "about": "(mBio, 2015)",
  "biological_target": "the molecule itself",
  "test": "cross-linking",
  "data": [
    {"protein": "Alg44-6His (natural protein, Pseudomonas aeruginosa, UniProt Q9HY69 1-389, looked up) MNTAVNVNVVHESEAQRQFARVKLPARIRYIGANREGVDARLLDLSAGGFAFTASGAPIQPGDLYKGKLLFQVDSISFSLEVEFQVRSVDPASRRVGCEFQNLKPREVAALRYLITSYLAGEVIGVGDMLNTLQRENFTKARKQGGGNGGMGFFGRVRAVTLSTAIFVVGVGAFAFILNQMYNLYFVTHADSGVVSVPNQQITMPREGTVQSLLGPNAEVAKGAPIATFSANLLDMLKGNLTEEQLNPGNIEKLFGHQMKGTLTSPCDCRVVQQLVADGQYANKGQVIFTLAPRDSVASIEARFPYRNAAELAPGTRVNFQVAGDGVNRSGRIVNTAPVDGDLSSEIRVQIQPDQPLDAQYAGRPAEVSIGGLPGRTLLNKAVTLATAR", "values": [
      {"measurement": "stoichiometry N", "value": 2}
    ]}
  ]
}
